For orientation: Kd means the concentration at which binding is half-saturated. Usually EC50 stands for the concentration at which the effect is half-maximal.

For experiment [1], the target named is T1, human CD16A-158V ECD fused to monomeric Fc (human, UniProt P08637 17-208).
T1 construct: extracellular domain; also called CD16A-158V ECD-monomeric Fc-fusion antigen; CD16A-158V ECD-Fc fusion antigen; not shown: monomeric Fc (Ying et al. 2012), silent; Avi-tag in the SPR form
The experiment in a line: SPR, Biacore T200, receptor captured, 1:1 model. A general note: Surface plasmon resonance follows binding to a sensor surface in real time, without labels.

The target of experiment [2] is T2, CD16A (FcγRIIIA) on primary human NK cells (human, UniProt P08637 17-254).
T2 construct: whole, on cells
The experiment in a line: flow cytometry, primary human NK cells, 37 C, buffer. For orientation: In flow cytometry, cells or beads pass a laser one at a time.

The target in experiment [3] is T3, Cynomolgus CD16A ECD fused to monomeric Fc (cynomolgus, UniProt Q8SPW2 17-208, biotinylated on the Avi-tag in the SPR form).
T3 construct: also called biotinylated mono-Fc(silent)-Avi-tagged cynomolgus CD16; not shown: monomeric Fc fusion partner (Avi-tag in the SPR form)
The experiment in a line: ELISA, antigen coated at 1.5 µg/mL, His-tagged scFv titrated. A general note: An ELISA detects its analyte on a solid surface through an enzyme-linked reagent.

Experiment [4] concerns the target T1, human CD16A-158V ECD fused to monomeric …. Described as above.
Experiment [5] deals with T4, human CD16A-158F ECD fused to monomeric Fc (human, UniProt P08637 17-208, biotinylated on the Avi-tag in the SPR form).
T4 construct: extracellular domain; not shown: monomeric Fc (Ying et al. 2012), silent; Avi-tag in the SPR form
Described as above.

The target of experiment [6] is T1, human CD16A-158V ECD fused to monomeric …. The experiment in a line: ELISA, CD16 antigen coated at 0.5 µg/mL (10 nM), without competition.
The target is the same in experiment [7]. The experiment in a line: ELISA, CD16 antigen coated at 0.5 µg/mL (10 nM), with 8-10 nM 3G8 IgG as competitor.
The target in experiment [8] is T2, CD16A (FcγRIIIA) on primary human NK …. Briefly: flow cytometry, primary human NK cells, 37 C, with 10 mg/mL polyclonal human IgG as competitor.
The target in experiment [9] is T5, biotinylated, recombinant human CD16A(48R-158V) fused to human IgG1 Fc portion (human, UniProt P08637 17-208, biotinylated (site not stated)).
T5 construct: also called CD16A soluble antigen; recombinant human CD16A soluble antigen; not shown: human IgG1 Fc portion
The experiment in a line: ELISA, coated construct, soluble CD16A(48R-158V)-Fc.

The target of experiment [10] is T2, CD16A (FcγRIIIA) on primary human NK …. The experiment in a line: flow cytometry, DyLight650-labelled antibody on fresh human NK cells (FIG. 40A).
Description: Fresh prepared human NK cells were pre-incubated for 1-hours at 37 C with and without 10 mg/mL of SCIG (Hizentra), then stained with DyLight650 labeled anti-AFM26/CD16a at indicted concentrations. […] NK (FIG. 40D) and MM.1S cells (FIG. 40C) were preincubated separately in 50% human autologous serum for 2 hours prior to assay setup. NK cells were co-cultured with MM.1S tumor cell line at an approximate E:T ration of 5, and exposed to 10-fold serial diluted test articles from 0.1-100 nM for approximately 20 hours at 37 C with 5% CO₂. Antibody staining with CD138 and CD56 followed by FACS were used to monitor cytotoxicity of MM.1S target cells and NK survival. Data were analyzed with the software programs FlowJo and GraphPad Prism 6.

T2 sequence (P08637 17-254): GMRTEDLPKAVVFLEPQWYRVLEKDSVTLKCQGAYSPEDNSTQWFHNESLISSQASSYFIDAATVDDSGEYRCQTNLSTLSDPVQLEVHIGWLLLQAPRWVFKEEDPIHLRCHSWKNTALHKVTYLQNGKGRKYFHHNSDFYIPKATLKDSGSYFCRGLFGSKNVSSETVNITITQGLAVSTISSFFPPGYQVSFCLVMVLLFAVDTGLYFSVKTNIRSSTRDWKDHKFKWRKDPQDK
T1 sequence (P08637 17-208 F176V): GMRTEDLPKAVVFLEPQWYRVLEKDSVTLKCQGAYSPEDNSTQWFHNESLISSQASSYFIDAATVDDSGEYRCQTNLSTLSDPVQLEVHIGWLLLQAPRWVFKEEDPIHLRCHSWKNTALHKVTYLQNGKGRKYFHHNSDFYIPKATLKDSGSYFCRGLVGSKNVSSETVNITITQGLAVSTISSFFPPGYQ
T4 sequence (P08637 17-208): as the sequence (P08637 17-208 F176V) above, with V160F counted along it
T5 sequence (P08637 17-208 L66R/F176V limits assumed): as the sequence (P08637 17-208 F176V) above, with L50R counted along it
T3 sequence (Q8SPW2 17-208): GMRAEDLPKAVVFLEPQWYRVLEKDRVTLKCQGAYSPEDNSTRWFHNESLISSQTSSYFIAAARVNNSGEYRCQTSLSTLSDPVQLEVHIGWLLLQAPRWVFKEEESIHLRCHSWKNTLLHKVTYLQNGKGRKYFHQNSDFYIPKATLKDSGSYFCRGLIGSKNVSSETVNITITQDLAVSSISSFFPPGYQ

B1: scFv 3G8 (scFv containing the variable domains of the CD16 pan-specific antibody 3G8) (scFv)
chain 1: QVTLKESGPGILQPSQTLSLTCSFSGFSLRTSGMGVGWIRQPSGKGLEWLAHIWWDDDKRYNPALKSRLTISKDTSSNQVFLKIASVDTADTATYYCAQINPAWFAYWGQGTLVTVS
chain 2: DIVLTQSPASLAVSLGQRATISCKASQSVDFDGDSFMNWYQQKPGQPPKLLIYTTSNLESGIPARFSASGSGTDFTLNIHPVEEEDTATYYCQQSNEDPYTFGGGTKLELK
Regarding B1, the Kd is 8.6 nM in experiment [1], 3.8 nM in [2] and 64.6 nM in [8]. Moreover, the EC50 in experiment [3] is 0.87 nM; in [4] it was 0.33 nM; in [5] it was 0.58 nM; in experiment [6] it was 0.9 nM; in experiment [7], 19.7 nM.

B2: scDb-Tribody_01 (other)
VL: SYVLTQPSSVSVAPGQTATISCGGHNIGSKNVHWYQQRPGQSPVLVIYQDNKRPSGIPERFSGSNSGNTATLTISGTQAMDEADYYCQVWDNYSVLFGGGTKLTVL
VH: QVQLVQSGAEVKKPGESLKVSCKASGYTFTSYYMHWVRQAPGQGLEWMGIINPSGGSTSYAQKFQGRVTMTRDTSTSTVYMELSSLRSEDTAVYYCARGSAYYYDFADYWGQGTLVTVSS
notes: Trispecific; LSIV21 scDb VL-VL-VH-VH; connector1 NO:20, no hinge, no Fc, connector2 NO:20
On to B2, for which the EC50 in experiment [9] worked out at 0.65 nM.

B3: CD16A/BCMA antibody I (bispecific antibody, human IgG1, kappa)
heavy: EVQLLESGGGLVQPGGSLRLSCAASGFTFSNYDMAWVRQAPGKGLEWVSSISTRGDITSYRDSVKGRFTISRDNSKNTLYLQMNSLRAEDTAVYYCARQDYYTDYMGFAYWGQGTLVTVSSASTKGPSVFPLAPSSKSTSGGTAALGCLVKDYFPEPVTVSWNSGALTSGVHTFPAVLQSSGLYSLSSVVTVPSSSLGTQTYICNVNHKPSNTKVDKKVEPKSCDKTHTCPPCPAPEFEGGPSVFLFPPKPKDTLMISRTPEVTCVVVAVSHEDPEVKFNWYVDGVEVHNAKTKPREEQYNSTYRVVSVLTVLHQDWLNGKEYKCKVSNKALPAPIEKTISKAKGQPREPQVYTLPPSREEMTKNQVSLTCLVKGFYPSDIAVEWESNGQPENNYKTTPPVLDSDGSFFLYSKLTVDKSRWQQGNVFSCSVMHEALHNHYTQKSLSLSPGGGGGSGGGGSGGGGSGGGGSGGGGSGGGGSSYVLTQPSSVSVAPGQTATISCGGHNIGSKNVHWYQQRPGQSPVLVIYQDNKRPSGIPERFSGSNSGNTATLTISGTQAMDEADYYCQVWDNYSVLFGGGTKLTVLGGSGGSGGSGGSGGSGGSGGSQVQLVQSGAEVKKPGESLKVSCKASGYTFTSYYMHWVRQAPGQGLEWMGAIEPMYGSTSYAQKFQGRVTMTRDTSTSTVYMELSSLRSEDTAVYYCARGSAYYYDFADYWGQGTLVTVSS
light: AIQMTQSPSSLSASVGDRVTITCRASEDIYNGLAWYQQKPGKAPKLLIYGASSLQDGVPSRFSGSGSGTEFTLTISSLQPEDEATYYCAGPHKYPLTFGGGTKVEIKRTVAAPSVFIFPPSDEQLKSGTASVVCLLNNFYPREAKVQWKVDNALQSGNSQESVTEQDSKDSTYSLSSTLTLSKADYEKHKVYACEVTHQGLSSPVTKSFNRGEC
notes: also called BCMA/CD16A antibody I; anti-BCMA/CD16a
B3: the binding result in experiment [10] is given as “binds”.

These data come from US20200109202A1 (published 2020).
